System: Hfq (His-tagged) (Burkholderia cenocepacia J2315?)
Assay: EMSA
Settings: RNA binding buffer (composition in cited ref. 21), 25 ul, 30 min at 25 C, salt and pH not stated

hfq2 5'-UTR (216 nt)
Kd (excess unlabelled yeast tRNA): 9.5 nM

h2cR sRNA (136 nt)
Kd (apparent Kd, 2.5 nM RNA, 0-10 nM Hfq6, excess yeast tRNA, excess unlabelled yeast …): 1.5 nM

From PMC3474761
